Assay results published in patent US7629135B2, “Toll-like receptor agonists and antagonists and methods of use thereof” (The Board of Trustees of the University of Illinois, priority 2006, dated 2009).

Experiments:
[1] = system: mouse macrophage cell line RAW264.7; experiment: G-CSF secretion in RAW264.7 cells (ELISA); assay type: cell-based; conditions: SAA 1 μM, time course
[2] = system: Human peripheral blood monocytes (PBMC); experiment: SAA-induced G-CSF secretion in human PBMC (ELISA); assay type: cell-based; conditions: SAA 1 μM
Protocol: SAA induces G-CSF expression in monocytes and macrophages: To determine whether SAA plays a role in neutrophilia, the ability of SAA to stimulate G-CSF expression was investigated. Human peripheral blood monocytes (PBMC) were incubated with SAA, and the concentration of secreted G-CSF in the culture medium was determined at various time points after stimulation. The concentration of SAA used in this experiment (1 μM) was well within its physiological range (0.08 μM to 80 μM). […] Since subsequent studies used mice for measurement of G-CSF secretion and neutrophilia, SAA-induced G-CSF expression in mouse bone marrow derived macrophages (BMDM) was determined, of which 98% were F4/80^+ CD14^+ based on flow cytometry analysis. […] The basal level of G-CSF remained stable at approximately 42 pg/ml/10^6 cells over the entire course of incubation.
Cell preparation and culture: Human peripheral blood monocytes were prepared from fresh, heparinized venous blood by Ficoll-Hypaque density-gradient centrifugation. […]
Measurement of G-CSF expression: To measure the secreted G-CSF from human monocytes and mouse macrophages in vitro, cells were placed in serum-free DMEM medium and stimulated with the indicated ligands. […] Real-time quantitative PCR was performed on a ABI PRISM 7000 Sequence Detection System (Applied Biosystems) as described previously (He et al., 2006). […]

[3] = system: NF-κB; experiment: Electrophoresis mobility shift assay (EMSA) with BMDM nuclear extracts; assay type: cell-based, mouse; conditions: SAA-stimulated BMDM, after 30 min
Protocol: To investigate the mechanism for SAA-induced G-CSF production, the level of G-CSF transcript in SAA-stimulated BMDM was determined. […] The induction of G-CSF transcript peaked at 4 h after SAA stimulation. Since transcription of the G-CSF gene involves NF-κB binding to the RelA/p65 consensus element in the CK-1 site of the G-CSF promoter (Dunn et al., 1994; Hareng and Hartung, 2002), the role of NF-κB in SAA-stimulated G-CSF expression was determined. […] Using oligonucleotide probe based on the sequence of the CK-1 site (−161 to −152 in the G-CSF promoter), a protein •DNA complex (FIG. 2C) was identified. […] Inclusion of a RelA/p65 antibody blocking peptide in the assay abrogated the immunoprecipitation (FIG. 2D).
EMSA: Nuclear extracts were isolated using the method of Dignam et al (Dignam et al., 1983) with minor modifications. For each sample, 5×10^6 cells were used. Radiolabeling of the NF-κB probe and CK-1 probe, binding reactions, electrophoresis, and autoradiography were conducted as described previously (He et al., 2003).

B1: SAA: Recombinant human SAA purchased from PeproTech; major acute-phase protein of 104 amino acids (protein, UniProt P0DJI8 19-122, looked up)
Serum amyloid A-1 protein: RSFFSFLGEAFDGARDMWRAYSDMREANYIGSDKYFHARGNYDAAKRGPGGAWAAEVITDARENIQRFFGHGAEDSLADQAANEWGRSGKDPNHFRPAGLPEKY
In the case of B1, the G-CSF production [1] is reported as “time-dependent production of G-CSF”, the “secreted G-CSF” value ([2]; after 4 h of stimulation) is reported as 2,546 pg/ml/10^6 cells and the “secreted G-CSF” value ([2]; end of 24 h incubation) is reported as 7,340 pg/ml/10^6 cells. The “formation of NF-κB•DNA complex” value [3] was “stimulated the formation of NF-κB•DNA complex”.
